The text below walks through data of article PMC2729490 (Biochemistry, 2009).

In assay [1] the target is calmodulin (human, Ca2+-loaded) (human) (UniProt P0DP23). The assay can be described thus: NMR titration.
Assay [2] addresses HVR peptide (22 amino acid synthetic peptide representing the hypervariable region of K-Ras4B) (human). As to the kind of experiment: ITC. On the technique in general: Isothermal titration calorimetry measures the heat released or taken up as one component is titrated into another.
Assay [3] has as its system CaM. The following applies: helix 5 independently expressed; ref [22]; cited from earlier work.

As to “HVR peptide (22 amino acid synthetic peptide representing the hypervariable region of K-Ras4B)”, in assay [1], the Kd (as a rule, the free concentration of one partner at which half of the binding sites on the other are occupied at equilibrium, for simple one-to-one binding) stood at 17.5 µM. That is a double-digit micromolar value.
In the case of “calmodulin (human, Ca2+-loaded) (from UniProt P0DP23 1-149) (natural protein)”, in assay [2], the Kd was 11.2 µM; the dH turned out to be 0.65 kcal/mol; the stoichiometry N (in general, a count of units in the complex or per binding partner) stood at 1.
As for “α–helix 5 peptide (amino acids 151–166): hydrophobic α–helix 5 peptide (amino acids 151–166) of K-Ras4B, independently expressed, literature (RVEDAFYTLVREIRQY; isoform 2B; UniProt P01116 151-166, looked up, fragment)”, in assay [3], the CaM binding result is “apparent binding to CaM”.
